The results in this text go back to patent US20190022241A1.

Assay [1] addresses human SEZ6 on NTX tumor cells (human) (UniProt Q53EL9). Kind of assay: flow cytometry dot plot of LU86 NTX tumor cells, CD324 against MOPC isotype control. (In general: A flow cytometer gives signals particle by particle.)
Assay [2] has the same target. Kind of assay: flow cytometry dot plot of LU64 NTX tumor cells, CD324 against MOPC isotype control.
For assay [3] the target is unchanged. As to the kind of experiment: flow cytometry dot plot of LU117 NTX tumor cells, CD324 against MOPC isotype control.

In assay [1], MOPC (antibody) displayed a % of cells in the lower right quadrant (CD324-, MOPC+) of 0.014%. Besides, the results for the % of cells in the upper right quadrant (CD324+, MOPC+) in assay [1], in assay [2] and in assay [3] were 0.483%, 0.597% and 0.347%, respectively.
